Data taken from patent US20210246218A1 (LYVGEN BIOPHARMA SUZHOU, published 2021).
Where “and” joins values, the source holds several entries; their conditions need not be identical. Identical values can stand only once.

Legend:
human CD137 on cells = human CD137 on cells (human, UniProt Q07011 24-255); assay: cell-based or functional assay
[1] = molecular target: T1, recombinant cynomolgus monkey CD137 receptor protein (cynomolgus monkey, UniProt A9YYE7 24-186); assay: ELISA, cynomolgus CD137 protein coated; average, n=6
T1 construct: Coated on ELISA plates; also called Cyno CD137
Description: (§1) The human or cynomolgus monkey CD137 receptor protein was diluted in DPBS to 1 μg/mL, and then coated onto an ELISA plate (Corning, Catalog number: 9018, high binding) with a volume of 100 μL (0.1 μg) or 50 μL (0.05 μg) per well, and incubated at 4° C. overnight. The plate was decanted and washed once; assay diluent was added 200 μL/well. After a one-hour incubation at room temperature, the plate was washed with PBST one time. […] The plate was incubated one hour at room temperature and then washed three times with PBST. Goat anti-human IgG-H+L HRP conjugated at 1:100,000 dilution was added to the plate at 100 μL/well. The plate was then incubated one hour at room temperature followed by washing with PBST four times. The TMB substrate solution was added at 100 μL/well. The color was allowed to develop for 15 minutes, and was stopped with 100 μL/well 2N H₂SO₄. Absorbance at 450 nm and 620 nm was determined by a Tecan F200 Pro reader.
(§2) Graphpad 7.0, “[Agonist] vs. response—Variable slope (four parameters)” was used to plot the binding data and calculate binding EC₅₀ values.

[2] = molecular target: T2, human FcγRIIA-His131 on CHO-K1 cells (human, UniProt P12318 34-317); assay: flow cytometry on CHO-huFcγRIIA-H131 cells, PE anti-human Fc F(ab')2
T2 construct: whole, on cells; Allotype His131; also called CHO-K1-huFcγRIIA-His131; CHO-huFcγRIIA-H131
T2 sequence (looked up): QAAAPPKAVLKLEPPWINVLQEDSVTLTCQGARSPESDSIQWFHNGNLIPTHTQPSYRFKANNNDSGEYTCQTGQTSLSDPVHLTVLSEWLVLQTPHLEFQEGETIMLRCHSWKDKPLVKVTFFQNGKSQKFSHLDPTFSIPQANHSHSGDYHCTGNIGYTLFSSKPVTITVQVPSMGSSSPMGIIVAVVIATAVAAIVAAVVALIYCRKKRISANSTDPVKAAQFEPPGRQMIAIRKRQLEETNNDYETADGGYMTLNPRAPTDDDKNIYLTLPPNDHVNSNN
Description: The plate was mixed and incubated in the dark for 2 hours at 4° C.

Ly049 = molecular target: T3, Ly049; assay: ELISA, CD137 protein coated, clone 3712 titrated; flat curve, fit marked ~ (see non_binding)
T3 chain: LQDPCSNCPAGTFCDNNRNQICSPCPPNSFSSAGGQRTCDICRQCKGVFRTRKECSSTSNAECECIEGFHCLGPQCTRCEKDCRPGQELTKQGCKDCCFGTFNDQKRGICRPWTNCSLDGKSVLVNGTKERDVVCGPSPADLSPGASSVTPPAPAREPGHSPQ
Description: (§3) For the data shown in FIGS. 16C-D, chimeric CD137 receptor protein samples were diluted in DPBS to 5 μg/mL and then coated onto an ELISA plate (Corning, Catalog number: 9018, high binding) at 50 μL (0.25 μg) per well, and incubated at 4° C. overnight. The plate was decanted and washed once; assay diluent was added at 200 μL/well. After a 1-hour incubation at room temperature, the plate was washed with PBST one time. […] The plate was incubated 1 hour at room temperature and then washed three times with PBST. Goat anti-human IgG-H+L HRP-conjugated at 1:100,000 dilution or goat anti-mouse IgG (H+L) secondary antibody, HRP, 10 at 1:50,000 dilution was added to the plate at 100 μL/well. The plate was incubated 1 hour at room temperature followed by washing with PBST four times. The TMB substrate solution was added 100 μL/well. The color was permitted to develop for 15 minutes and then 100 μL/well 2N H2SO4 was added to terminate the reaction. Absorbance at 450 nm and 620 nm was determined by a Tecan F200 Pro reader.

Ly051 = molecular target: T4, Ly051; assay: as above
T4 chain: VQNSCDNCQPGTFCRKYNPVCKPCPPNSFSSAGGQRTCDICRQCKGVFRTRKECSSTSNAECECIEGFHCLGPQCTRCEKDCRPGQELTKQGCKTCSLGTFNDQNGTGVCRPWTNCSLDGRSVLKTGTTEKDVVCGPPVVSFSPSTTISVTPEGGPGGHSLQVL
Description: as §3

[3] = molecular target: T1, recombinant cynomolgus monkey CD137 …; assay: ELISA, recombinant cynomolgus CD137 protein coated, antibody titrated
Description: as §1, §2

[4] = molecular target: T5, recombinant human CD137 receptor protein (human, UniProt Q07011 24-186); assay: ELISA, recombinant human CD137 protein coated, antibody titrated
T5 construct: Coated on ELISA plates; also called recombinant human CD137 protein
Description: as §1, §2

[5] = molecular target: T5, recombinant human CD137 receptor protein; assay: ELISA, human CD137 protein coated; average, n=6
Description: as §1, §2

T1 sequence (A9YYE7 entry or part of it): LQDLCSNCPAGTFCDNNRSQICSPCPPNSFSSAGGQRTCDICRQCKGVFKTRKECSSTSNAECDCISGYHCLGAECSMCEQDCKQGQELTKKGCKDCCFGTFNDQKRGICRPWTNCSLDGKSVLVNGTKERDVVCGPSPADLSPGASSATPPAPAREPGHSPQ

B1: Clone 3712-IgG1v (IgG1v/kappa) (antibody)
heavy: QVQLVQSGAEVKKPGASVKVSCKASGYTFAGFEMHWVRQAPGQGLEWMGAIDPKTGGTDYNQKFKDRVTMTRDTSISTAYMELSRLRSDDTAVYYCARDLGYFDVWGQGTLVTVSSASTKGPSVFPLAPSSKSTSGGTAALGCLVKDYFPEPVTVSWNSGALTSGVHTFPAVLQSSGLYSLSSVVTVPSSSLGTQTYICNVNHKPSNTKVDKKVEPKSCDKTHTCPPCPAPELLGPSVFLFPPKPKDTLMISRTPEVTCVVVDVEHEDPEVKFNWYVDGVEVHNAKTKPREEQYNSTYRVVSVLTVLHQDWLNGKEYKCKVSNKALPAPIEKTISKAKGQPREPQVYTLPPSREEMTKNQVSLTCLVKGFYPSDIAVEWESNGQPENNYKTTPPVLDSDGSFFLYSKLTVDKSRWQQGNVFSCSVMHEALHNHYTQKSLSLSPGK
light: DIQMTQSPSSLSASVGDRVTITCRASQDIRSNLNWYQQKPGGAVKLLIYYTSRLHSGVPSRFSGSGSGTDYTLTISSLQPEDFATYFCQQSEKLPRTFGGGTKVEIRRTVAAPSVFIFPPSDEQLKSGTASVVCLLNNFYPREAKVQWKVDNALQSGNSQESVTEQDSKDSTYSLSSTLTLSKADYEKHKVYACEVTHQGLSSPVTKSFNRGEC
notes: copies: 2 + 2
In the case of B1, the “IFN-γ secretion of human CD8+ T cells co-cultured with CHO-K1-huFcγRIIB cells and OKT3; average EC50, n=12” value (human CD137 on cells) is reported as 30.6 ng/mL and ~0.21 nM, the “IL-8 secretion of CD137 reporter cells (GS-H2-huCD137) co-cultured with CHO-K1-huFcγRIIB cells; average EC50, n=6” value (human CD137 on cells) is reported as 44.4 ng/mL and ~0.31 nM and the EC50 [1] is reported as 0.33 nM and 0.0474 µg/mL. The binding result [2] was “no binding (tested: 100 µg/mL)”, the EC50 (Ly049) was about 0.903 µg/mL and the EC50 (Ly051) was about 0.00101 µg/mL. The “EC50 (read off the curve)” value [3] was about 0.05 µg/mL, the “EC50 (read off the curve)” value [4] was about 0.05 µg/mL and the EC50 [5] was 0.37 nM and 0.0529 µg/mL.
